Results on two molecules are retold here after patent US20080260812A1 (TAKAMI MATSUYAMA C O KAGOSHIMA UNIVERSITY, published 2008).

Assay [1] deals with T1, folate receptor alpha (FR-α) (UniProt P15328 25-234, limits assumed).
T1 construct: whole, on cells
As to the kind of experiment: flow cytometry on KB cells, fluorescence-labeled anti-mouse Ig. For orientation: In flow cytometry, cells or beads pass a laser one at a time.

The target in assay [2] is T2, folate receptor beta (FR-β) (human, UniProt P14207 17-230).
T2 construct: whole, on cells; also called FR-β antigen; human FR-β antigen
The assay can be described thus: flow cytometry on FR-β gene-transfected B300-19 cells.
Method: Using a mixture of 20 μl of lipofectamine (Gibco BRL), 1 μg of the purified pEF vector insert, and 1 ml of a Hank's balanced salt solution, the FR-β gene was transfected into B300-19 cells which were previously prepared at 1×10⁵ in 24 wells. […] Namely, 5×10⁵ B3001-9 cells were reacted with 0.1 ml of the FR-β antibody (1 mg/ml) at 4° C. for 30 minutes. The cells were washed 3 times with PBS containing 0.1% NaN₃ and 10% fetal calf serum, after which they were reacted with a fluorescence-labeled goat anti-mouse Ig antibody (BIOSOURCE) at 4° C. for 30 minutes. Then, the cells were washed twice with PBS containing 0.1% NaN₃ and 1% fetal calf serum, after which fluorescence of the cells was assayed using EPICS Elite (Coulter).

T1 sequence (P15328 25-234 limits assumed): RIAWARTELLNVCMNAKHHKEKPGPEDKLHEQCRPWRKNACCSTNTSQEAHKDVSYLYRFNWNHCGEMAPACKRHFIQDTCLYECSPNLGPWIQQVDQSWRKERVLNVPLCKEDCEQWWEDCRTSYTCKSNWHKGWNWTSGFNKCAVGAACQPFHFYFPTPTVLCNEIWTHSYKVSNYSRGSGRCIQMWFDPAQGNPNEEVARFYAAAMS
T2 sequence (P14207 17-230): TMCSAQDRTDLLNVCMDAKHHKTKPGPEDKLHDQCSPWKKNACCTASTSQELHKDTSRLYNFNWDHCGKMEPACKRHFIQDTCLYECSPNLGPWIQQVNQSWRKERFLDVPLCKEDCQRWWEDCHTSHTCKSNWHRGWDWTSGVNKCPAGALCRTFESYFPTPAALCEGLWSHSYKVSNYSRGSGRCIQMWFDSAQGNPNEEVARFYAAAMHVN

B1: IgG-type FR-β monoclonal antibody clone 94b (antibody, V domains shown)
VH: EVQLQQSGAELVKPGASVRLSCTASGFNIKDTYMYWVKQRPEQGLEWIGRLDPANGNTRYDPKFQGKATITSDTSSNTAYLQLSSLTSEDTAVYYCAGDYPIIDYWGQGTTLTVSS
VL: DIVMSQSPSSLAVSAGEKVTMSCKSSQSLLNSRTRKTYLAWYQQKPGQSPKLLIYWASTRESGVPDRFTGSGSGTEFTLTISSVQAEDLAVYYCKQSYNLWTFGGGTKLEIKR
Consider B1, for which the binding result was “no binding” in assay [1] and “binds” in assay [2].

B2: IgG-type FR-β monoclonal antibody clone 36 (antibody, V domains shown)
VH: QVQLQQSGAELMKPGASLKISCKATGYTFSSYWIEWVKQRPGHGLQWIGEILPGSGSSNYNEKFKGKATFTADTSSNTAYMQLSSLTSEDSAVYYCARRGSSGSYFAMDYWGQGTSVTVSS
VL: DIQMTQSSSSFSVSLGDRVTITCKASEDIYNRLAWYQQKPGNAPRLLISGATSLETGVPLRFSGSGSGKDYTLSITSLQTEDIATYYCQQYWSTPWTFGGGTKLEIK
notes: also called clone 36 antibody; IgG monoclonal antibody against a human FR-β antigen (clone 36)
For the molecule B2, in assay [1], the binding result is listed as “no binding”.
